Bridges are numbered along the chain shown (N, C = ends). Primed or numbered codes have the meaning given here. [ ]: non-standard residue; d: D form. Ygp = O-(8x polyethylene glycol-amino)-tyrosine; Yn3 = O-(9x polyethylene glycol-azido)-tyrosine; cleavable moiety = not defined here; PEG4′ = 4x polyethylene glycol; PEG9″ = 9x polyethylene glycol; hSer = N[C@@H](CCO)C(=O)O; Nle = CCCC[C@H](N)C(=O)O
B1: CMP-305, MMP2 cleaved (ligand)
chain: APTSSSTKKTQLQLEHLLLDLQKILNGINNYKNPKLTR[Nle]L[hSer][Yn3]KF[Ygp][Nle]PKKATELKHLQCLEEELKPLEEVL[hSer]LAQSKNFHLRPRDLISNINVIVLELKGSETTF[hSer]CEYADETATIVEFLNRWITFSQSIISTLT
modifications: ends and bridges not checked; also: cleavable moiety between Glu15 and Lys23 side chains cut by MMP2, macrocycle opened, cut site not given here
B2: CMP-305 (ligand)
chain: APTSSSTKKTQLQLEHLLLDLQKILNGINNYKNPKLTR[Nle]L[hSer][Yn3]KF[Ygp][Nle]PKKATELKHLQCLEEELKPLEEVL[hSer]LAQSKNFHLRPRDLISNINVIVLELKGSETTF[hSer]CEYADETATIVEFLNRWITFSQSIISTLT
modifications: linker 15-23 via cleavable moiety; ends not checked; also: cleavable peptide of the bridge not defined
B3: CMP-303 (ligand)
chain: PLGLAGAPTSSSTKKTQLQLEHLLLDLQEILNGINNYKNPKLTR[Nle]L[hSer][Yn3]KF[Ygp][Nle]PKKATELKHLQCLEEELKPLEEVL[hSer]LAQSKNFHLRPRDLISNINVIVLELKGSETTF[hSer]CEYADETATIVEFLNRWITFSQSIISTLT
modifications: linker N-29 via PEG4′; ends not checked
B4: CMP-303, MMP2 cleaved (ligand)
chain: PLGLAGAPTSSSTKKTQLQLEHLLLDLQEILNGINNYKNPKLTR[Nle]L[hSer][Yn3]KF[Ygp][Nle]PKKATELKHLQCLEEELKPLEEVL[hSer]LAQSKNFHLRPRDLISNINVIVLELKGSETTF[hSer]CEYADETATIVEFLNRWITFSQSIISTLT
modifications: ends and bridges not checked; also: cleaved by MMP2 within the cleavable peptide, macrocycle opened, cut site not given here, PEG4 linker
B5: CMP-304, MMP2 cleaved (ligand)
chain: PLGLAGAPTSSSTKKTQLQLEHLLLDLQEILNGINNYKNPKLTR[Nle]L[hSer][Yn3]KF[Ygp][Nle]PKKATELKHLQCLEEELKPLEEVL[hSer]LAQSKNFHLRPRDLISNINVIVLELKGSETTF[hSer]CEYADETATIVEFLNRWITFSQSIISTLT
modifications: ends and bridges not checked; also: cleaved by MMP2 within the cleavable peptide, macrocycle opened, cut site not given here, PEG9 linker
B6: CMP-304 (ligand)
chain: PLGLAGAPTSSSTKKTQLQLEHLLLDLQEILNGINNYKNPKLTR[Nle]L[hSer][Yn3]KF[Ygp][Nle]PKKATELKHLQCLEEELKPLEEVL[hSer]LAQSKNFHLRPRDLISNINVIVLELKGSETTF[hSer]CEYADETATIVEFLNRWITFSQSIISTLT
modifications: linker N-29 via PEG9″; ends not checked

Biological target: T1, IL-2 receptor βγ complex on pan T cells (human, UniProt P14784 27-551; P31785 23-369)
T1 sequence (looked up) 1: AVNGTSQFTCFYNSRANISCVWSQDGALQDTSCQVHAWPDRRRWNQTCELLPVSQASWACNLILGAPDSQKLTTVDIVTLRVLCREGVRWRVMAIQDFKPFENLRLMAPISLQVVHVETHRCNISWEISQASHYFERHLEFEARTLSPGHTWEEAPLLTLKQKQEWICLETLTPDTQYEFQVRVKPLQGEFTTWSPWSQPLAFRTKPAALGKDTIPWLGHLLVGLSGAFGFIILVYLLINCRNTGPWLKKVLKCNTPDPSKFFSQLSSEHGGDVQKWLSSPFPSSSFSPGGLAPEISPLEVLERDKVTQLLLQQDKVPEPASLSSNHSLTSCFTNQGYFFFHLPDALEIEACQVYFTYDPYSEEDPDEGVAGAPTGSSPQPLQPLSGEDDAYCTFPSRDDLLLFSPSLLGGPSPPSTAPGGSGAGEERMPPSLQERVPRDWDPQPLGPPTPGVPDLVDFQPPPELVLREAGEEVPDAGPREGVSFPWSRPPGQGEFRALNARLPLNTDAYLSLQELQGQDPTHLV
T1 sequence (looked up) 2: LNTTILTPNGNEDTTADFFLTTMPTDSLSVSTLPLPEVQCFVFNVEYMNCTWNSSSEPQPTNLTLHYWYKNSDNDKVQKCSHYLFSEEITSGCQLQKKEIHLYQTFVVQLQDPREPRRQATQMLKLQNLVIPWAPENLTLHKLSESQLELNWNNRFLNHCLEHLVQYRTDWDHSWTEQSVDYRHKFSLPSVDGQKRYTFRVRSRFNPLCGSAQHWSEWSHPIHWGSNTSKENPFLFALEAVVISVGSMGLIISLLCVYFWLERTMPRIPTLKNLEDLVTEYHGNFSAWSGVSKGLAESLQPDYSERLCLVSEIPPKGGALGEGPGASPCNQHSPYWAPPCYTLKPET
Experiment: cell-based or functional assay

Binder | Average EC50, pSTAT5 assay in pan T cells, MMP2 cleaved molecule [nM] | Average EC50, pSTAT5 assay in pan T cells, intact molecule [nM]
B1 | 3.26 | –
B2 | – | 128
B3 | – | 97.9
B4 | 4.4 | –
B5 | 8.61 | –
B6 | – | 110
